Measured values as given in patent WO2021160116A1.

Molecular target: human FcRn mut (L320A, L321A) co-transfected with human β2M, stably overexpressed on HEK293 cells (human) (UniProt P55899)
Assay: flow cytometry competition, Argx-113 against biotin-hIgG (100 μg/mL) on HEK293 cells overexpressing human FcRn mut, pH 6.0

IC50: 9.77 nM
Substance: Argx-113
